{
  "source": "paper PMC10401002",
  "biological_target": "endogenous human glyceraldehyde 3-phosphate dehydrogenase (GAPDH), 3xFLAG-tagged by CRISPR/Cas9 knock-in (human (endogenous in HEK293T)) (UniProt P04406)",
  "experiment": "cryo-EM structure; single-particle cryo-EM of endogenous 3xFLAG-tagged protein purified from HEK293T (anti-FLAG M2, SEC in TBS) on amine-modified graphene oxide grids; GAPDH also from cytosol and nuclei after 8 and 24 h of oxidative stress (1 mM H2O2, 10 mM L-Arg)",
  "data": [
    {"substance": "endogenous human glyceraldehyde 3-phosphate dehydrogenase (GAPDH), 3xFLAG-tagged by CRISPR/Cas9 knock-in, P04406 1-335 (enzyme; other documents disagree on this pair)", "values": [
      {"measurement": "stoichiometry N", "result": 4}
    ]}
  ]
}
